Test results published in PMC9143595.
Numbering of substitutions follows the chain as printed.

B1: RBD-1C (CoV2-RBD-1) (ssDNA)
DNA: CAGCACCGACCTTGTGCTTTGGGAGTGCTGGTCCAAGGGCGTTAATGGACA
modifications: 5'-amino-modifier C6
B2: RBD-1CM2 (ssDNA)
DNA: B1 DNA with G41C, A44G
modifications: 5'-amino-modifier C6
B3: RBD-1CM1 (ssDNA)
DNA: B1 DNA with C34T, G47A
modifications: 5'-amino-modifier C6

Each binder was assayed against SARS-CoV-2 spike protein S1 subunit (SARS-CoV-2, UniProt P0DTC2 14-685) (assay: QCM). Conditions: protein: commercial.

In order of falling Ka:
1. B2  1.2 10^5 M-1
2. B3  1.2 10^5 M-1
3. B1  1 10^5 M-1
